One series addresses T1, mouse NAT8L (Mus musculus, UniProt Q3UGX3).
T1 construct: expressed in transfected cells; host or cells: HEK 293T cells (pCMV5 vector); washed 16 000 x g membrane pellets of frozen-thawed extracts
T1 sequence (Q3UGX3 1-299): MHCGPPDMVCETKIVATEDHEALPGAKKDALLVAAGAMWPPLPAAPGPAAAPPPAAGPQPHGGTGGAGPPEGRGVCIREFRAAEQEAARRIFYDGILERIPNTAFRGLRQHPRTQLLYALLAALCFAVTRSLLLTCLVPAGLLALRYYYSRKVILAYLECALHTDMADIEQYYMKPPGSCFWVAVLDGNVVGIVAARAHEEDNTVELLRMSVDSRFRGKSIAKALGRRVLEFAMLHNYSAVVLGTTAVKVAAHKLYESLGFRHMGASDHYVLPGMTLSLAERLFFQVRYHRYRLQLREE
The experiment in a line: Radiochemical Asp-NAT activity assay on washed membrane pellets of HEK cells transfected with untagged mouse NAT8L. The format is biochemical. As to the method:
After 20-40 min at 30°C, the reaction was arrested by a 5-min incubation at 80°C and 1 ml of 5 mM Hepes, pH 7.1 was added. The sample was centrifuged and the supernatant was applied on a 1-ml Dowex AG1X8 column (Cl^- form, 100-200 mesh, from Acros Organics) prepared in a Pasteur capillary pipette. […] Radioactivity was counted in the presence of Ultima Gold™ (Perkin Elmer) in a liquid scintillation counter. The kinetic studies shown in Figure 3 were performed using washed pellets, obtained by centrifuging extracts for 20 min at 16 000 x g, resuspending them in the initial volume of extraction buffer, recentrifugation and resuspension in the original volume of extraction buffer.
The Asp-NAT activity was further characterized in extracts of cells expressing wild-type mouse NAT8L. […] The kinetic studies were therefore performed on washed pellets, to eliminate soluble, potentially interfering enzymes. […] The KM values amounted to ≈ 9 and 13 µM in the presence of 0.5 and 1 mM CHAPS, respectively.

Substrate in series [1]: NC(CCC(=O)O)C(=O)O
Nature of the series: purified protein, by the assay type. As to conditions: other: glutamate as substrate (not shown); pH 7.1.

Substrate in series [2]: N[C@@H](CC(=O)O)C(=O)O
The experiment in a line: purified protein, by the assay type. As to conditions: other: substrate saturation curve; same in absence and presence of 0.5 mM CHAPS; pH 7.1.

Substrate in series [3]: CC(=O)SCCNC(=O)CCNC(=O)[C@H](O)C(C)(C)COP(=O)(O)OP(=O)(O)OC[C@H]1O[C@@H](n2cnc3c(N)ncnc32)[C@H](O)[C@@H]1OP(=O)(O)O
Nature of the series: purified protein, by the assay type. As to conditions: other: 20 µM aspartate, pH 7.1.

Read-outs that look alike come from different tables or passages of the source.

As to `N[C@@H](CCC(=O)O)C(=O)O` [glutamate], the Ki – broadly, a dissociation constant, usually derived from enzyme kinetics or from competition with a known ligand – at mouse NAT8L was approximately 6 mM.
For `C[C@H](CCC(=O)NCCC[N+](C)(C)CCCS(=O)(=O)[O-])[C@H]1CC[C@H]2[C@@H]3[C@H](O)C[C@@H]4C[C@H](O)CC[C@]4(C)[C@H]3C[C@H](O)[C@]12C` [CHAPS], the “increase of Vmax” value on mouse NAT8L (0.5 mM CHAPS, saturation curve for aspartate) is reported as “≈ 30%”.
The molecule `CC(=O)N[C@@H](CC(=O)O)C(=O)O` [NAA, N-acetylaspartate] displayed a Ki on mouse NAT8L (inhibition of incorporation of [^14C]-aspartate into NAA, competitive with respect to aspartate, 200 µM acetyl-CoA, 0.5 mM CHAPS, variable aspartate) of 0.56 mM.

B1: mouse NAT8L (Mus musculus) (protein)
chain: MHCGPPDMVCETKIVATEDHEALPGAKKDALLVAAGAMWPPLPAAPGPAAAPPPAAGPQPHGGTGGAGPPEGRGVCIREFRAAEQEAARRIFYDGILERIPNTAFRGLRQHPRTQLLYALLAALCFAVTRSLLLTCLVPAGLLALRYYYSRKVILAYLECALHTDMADIEQYYMKPPGSCFWVAVLDGNVVGIVAARAHEEDNTVELLRMSVDSRFRGKSIAKALGRRVLEFAMLHNYSAVVLGTTAVKVAAHKLYESLGFRHMGASDHYVLPGMTLSLAERLFFQVRYHRYRLQLREE
Regarding B1, the Km (usually the concentration of substrate that gives half-maximal velocity) amounted to 5000 µM in series [1], 90 µM in series [2], 9 µM in series [3] (in the presence of 0.5 mM CHAPS) and 13 µM in series [3] (in the presence of 1 mM CHAPS).

Source of the values: patent EP2261242A1, “Aspartate-N-acetyltransferase enzyme, diagnostic method and therapeutic method” (UNIVERSITE CATHOLIQUE DE LOUVAIN, priority 2009, dated 2010).
